{"source": "patent US5876971A", "about": "“Thrombin inhibitor from the saliva of protostomia” (Schering Aktiengesellschaft, priority 1992, dated 1999)", "key": {"thrombin [1]": {"tested_on": "thrombin", "assay": "Inhibition of the thrombin activity in the clotting test (fibrinogen cleavage)", "assay_type": "biochemical", "protocol": "Inhibition of the thrombin activity in the clotting test\nIn a microtiterplate, which is coated with bovine serum albumin (0.1% in 0.1 mol/l of NaHCO3, pH 9.5), 80 μl of 20 mmol/l of HEPES, pH 7.4; […] of NaCl; 20 μl of 20 mmol/l of CaCl2; 100 μl of a diluted solution of the protein of the invention (5-50 ng) and 20 μl of thrombin (0.03 IU=0.03 International Units) are pipetted. After an incubation of 2 minutes at 37° C., 100 μl of fibrinogen (5 mg/ml) is added and incubated for 40 minutes at 37° C. Then, the absorption is measured at 405 nm. […] (See FIG. 3)"}, "thrombin [2]": {"tested_on": "thrombin", "assay": "Inhibition of the thrombin activity in the amidolytic test (substrate S2238)", "assay_type": "biochemical", "settings": "inhibitor 6 nmol/l; thrombin 0.03 IU", "protocol": "Inhibition of the thrombin activity in the amidolytic test\nIn a microtiterplate, 80 μl of 100 mmol/l of tris/HCl, pH 7.4; 150 mmol/l of NaCl and 0.03 IU ([…]) of thrombin and 100 μl of a diluted solution of the protein of the invention (32-630 ng) are incubated for 10 minutes at 37° C. and then mixed with 100 μl (50 nmol) of substrate S2238 (Kabi Vitrum). After an incubation of 30 minutes at 37° C., the absorption is measured at 405 nm. 630 ng (117 nmol/l) inhibits the activity of the thrombin to approximately 50%. […] (See FIG. 2)"}, "thrombin [3]": {"target": "thrombin"}, "thrombin [4]": {"target": "thrombin", "remark": "listed apart in the source"}, "thrombin [5]": {"target": "thrombin", "remark": "listed apart in the source"}, "thrombin [6]": {"target": "thrombin", "remark": "listed apart in the source"}}}
{"molecule": "hirudin", "values": [{"measurement": "inhibition of fibrinogen cleavage (clotting)", "setting": "thrombin [1]; inhibitor 8 nmol/l (45 ng), thrombin 0.03 IU (1.27 nmol/l), absorption at 405 nm", "value": "complete inhibition"}, {"measurement": "inhibition of thrombin activity in the amidolytic test", "setting": "thrombin [2]", "value": 85, "unit": "%"}]}
{"molecule": "thrombin inhibitor purified from the saliva of Triatoma pallidipennis (protein of the invention, purified according to Example 1)", "values": [{"measurement": "inhibition of the thrombin activity in the amidolytic test (substrate S2238, absorption at 405 nm); concentration giving approximately 50% inhibition", "setting": "thrombin [3]", "value": 117, "unit": "nmol/L"}, {"measurement": "inhibition of thrombin-induced blood platelet aggregation (aggregometer)", "setting": "thrombin [4]", "value": 15, "unit": "ng/mL"}, {"measurement": "lengthening of the thrombin time (plasma clotting after adding thrombin)", "setting": "thrombin [5]", "value": 35, "unit": "nmol/L"}, {"measurement": "inhibition of the thrombin activity in the clotting test (fibrinogen cleavage, absorption at 405 nm)", "setting": "thrombin [6]", "value": 8, "unit": "nmol/L"}]}
{"molecule": "purified fraction: recombinant mature protein (Ti28=seq. id. no. 2) produced in E. coli, purified by ion exchange and thrombin affinity chromatography (protein) AEGDDCSLEKAMGDFKPEEFFNGTWYLAHGPDVTSPAVCQKFTTSGSKGFTQIVEIGYNKFESNVKFQCNQVDNKNDEQYSFKCKGSDNTEFEADFTFISVSYDNFALVCRSIIFTSQPKEDDYLVFERTKSDTDPDANEIC", "values": [{"measurement": "inhibition of thrombin activity in the clotting test (qualitative)", "setting": "thrombin [1]; material from transformed E. coli, concentration not given", "value": "same inhibitory activity as the saliva protein"}]}
